Measurements published in paper PMC5976803.
Numbering of substitutions follows the chain as printed. Names and notes keep the numbering of the source. Each block holds one binder with its values, some of them ahead of it.

How the values were obtained:
Test in all cases: proteoliposome ELISA
Conditions in all cases: chain shown with the change;; parent: est. 1.0; read off a plot
[1] = target: T1, anti-CLDN-5 ECR mAb clone 1B3
T1 chain 1: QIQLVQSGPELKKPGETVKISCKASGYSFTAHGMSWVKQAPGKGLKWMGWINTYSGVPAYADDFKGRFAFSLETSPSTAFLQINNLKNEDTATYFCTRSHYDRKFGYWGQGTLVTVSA
T1 chain 2: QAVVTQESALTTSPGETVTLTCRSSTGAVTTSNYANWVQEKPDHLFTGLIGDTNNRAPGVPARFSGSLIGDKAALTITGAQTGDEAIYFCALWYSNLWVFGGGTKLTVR

[2] = target: anti-CLDN-5 ECR mAb clone 2B1
Chain of anti-CLDN-5 ECR mAb clone 2B1 (chain, as listed by the source, chain 1 of 2): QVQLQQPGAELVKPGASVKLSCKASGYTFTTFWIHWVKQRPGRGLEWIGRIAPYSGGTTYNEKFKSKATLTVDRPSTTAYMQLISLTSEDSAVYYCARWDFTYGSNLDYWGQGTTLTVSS
Chain of anti-CLDN-5 ECR mAb clone 2B1 (chain, as listed by the source, chain 2 of 2): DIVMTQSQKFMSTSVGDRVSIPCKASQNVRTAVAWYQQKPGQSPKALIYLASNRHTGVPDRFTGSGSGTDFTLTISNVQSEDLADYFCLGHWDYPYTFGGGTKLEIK

[3] = target: anti-CLDN-5 ECR mAb clone 1D1
Chain of anti-CLDN-5 ECR mAb clone 1D1 (chain, as listed by the source, chain 1 of 2): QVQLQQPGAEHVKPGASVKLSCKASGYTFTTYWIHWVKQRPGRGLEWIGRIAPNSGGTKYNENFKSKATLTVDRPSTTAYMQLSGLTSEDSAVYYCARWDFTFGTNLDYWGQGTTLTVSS
Chain of anti-CLDN-5 ECR mAb clone 1D1 (chain, as listed by the source, chain 2 of 2): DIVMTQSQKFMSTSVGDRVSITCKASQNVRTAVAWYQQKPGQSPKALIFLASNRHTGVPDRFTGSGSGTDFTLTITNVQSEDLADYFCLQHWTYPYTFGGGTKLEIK

[4] = target: anti-CLDN-5 ECR mAb clone 2B12
Chain of anti-CLDN-5 ECR mAb clone 2B12 (chain, as listed by the source, chain 1 of 2): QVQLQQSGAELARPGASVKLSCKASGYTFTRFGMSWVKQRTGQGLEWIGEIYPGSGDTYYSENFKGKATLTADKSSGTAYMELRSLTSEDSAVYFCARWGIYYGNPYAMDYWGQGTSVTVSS
Chain of anti-CLDN-5 ECR mAb clone 2B12 (chain, as listed by the source, chain 2 of 2): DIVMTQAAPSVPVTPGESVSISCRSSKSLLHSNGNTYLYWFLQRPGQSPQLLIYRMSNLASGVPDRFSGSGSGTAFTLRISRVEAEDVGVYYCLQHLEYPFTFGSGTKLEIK

- ratio to parent [1]: 1.2
- ratio to parent [2]: 0.55
- ratio to parent [3]: 0.88
- ratio to parent [4]: 0.94
B1: AGIA-tagged human CLDN-5, cell-free synthesized proteoliposome, O00501 Q156A (protein)
chain: MGSAALEILGLVLCLVGWGGLILACGLPMWQVTAFLDHNIVTAQTTWKGLWMSCVVQSTGHMQCKVYDSVLALSTEVQAARALTVSAVLLAFVALFVTLAGAQCTTCVAPGPAKARVALTGGVLYLFCGLLALVPLCWFANIVVREFYDPSVPVSAKYELGAALYIGWAATALLMVGGCLLCCGAWVCTGRPDLSFPVKYSAPRRPTATGDYDKKNYV

- ratio to parent [1]: 0.49
- ratio to parent [2]: 0.25
- ratio to parent [3]: 0.26
- ratio to parent [4]: 0.36
B2: AGIA-tagged human CLDN-5, cell-free synthesized proteoliposome, O00501 E146A (protein)
chain: B1 chain with E146A, A156Q

- ratio to parent [1]: 0.17
- ratio to parent [2]: 1.1
- ratio to parent [3]: 1.3
- ratio to parent [4]: 0.75
B3: AGIA-tagged human CLDN-5, cell-free synthesized proteoliposome, O00501 Y148A (protein)
chain: B1 chain with Y148A, A156Q

- ratio to parent [1]: 1.2
- ratio to parent [2]: 1.1
- ratio to parent [3]: 1.3
- ratio to parent [4]: 0.87
B4: AGIA-tagged human CLDN-5, cell-free synthesized proteoliposome, O00501 V154A (protein)
chain: B1 chain with V154A, A156Q

- ratio to parent [1]: 1.8
- ratio to parent [2]: 0.27
- ratio to parent [3]: 0.26
- ratio to parent [4]: 0.13
B5: AGIA-tagged human CLDN-5, cell-free synthesized proteoliposome, O00501 P150A (protein)
chain: B1 chain with P150A, A156Q

- ratio to parent [1]: 1.3
- ratio to parent [2]: 0.84
- ratio to parent [3]: 0.86
- ratio to parent [4]: 0.99
B6: AGIA-tagged human CLDN-5, cell-free synthesized proteoliposome, O00501 S155A (protein)
chain: B1 chain with S155A, A156Q

- ratio to parent [1]: 0.75
- ratio to parent [2]: 0.14
- ratio to parent [3]: 0.1
- ratio to parent [4]: 0.03
B7: AGIA-tagged human CLDN-5, cell-free synthesized proteoliposome, O00501 S151A (protein)
chain: B1 chain with S151A, A156Q

- ratio to parent [1]: 2.4
- ratio to parent [2]: 1.1
- ratio to parent [3]: 1.5
- ratio to parent [4]: 1.3
B8: AGIA-tagged human CLDN-5, cell-free synthesized proteoliposome, O00501 F147A (protein)
chain: B1 chain with F147A, A156Q

- ratio to parent [1]: 0.17
- ratio to parent [2]: 0.11
- ratio to parent [3]: 0.06
- ratio to parent [4]: 0.03
B9: AGIA-tagged human CLDN-5, cell-free synthesized proteoliposome, O00501 D149A (protein)
chain: B1 chain with D149A, A156Q

- ratio to parent [1]: 0.19
- ratio to parent [2]: 0.14
- ratio to parent [3]: 0.13
- ratio to parent [4]: 0.08
B10: AGIA-tagged human CLDN-5, cell-free synthesized proteoliposome, O00501 P153A (protein)
chain: B1 chain with P153A, A156Q

- ratio to parent [1]: 0.25
- ratio to parent [2]: 1.2
- ratio to parent [3]: 1.6
- ratio to parent [4]: 0.39
B11: AGIA-tagged human CLDN-5, cell-free synthesized proteoliposome, O00501 V152A (protein)
chain: B1 chain with V152A, A156Q
